Values quoted from earlier work in paper PMC10618199.

Biological target: insulin receptor site-2 (Homo sapiens) (UniProt P06213)

Chain of insulin (P01308 90-110): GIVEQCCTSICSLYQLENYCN

**Q.** With insulin (from UniProt P01308) as the substance, how does the Kd read?
**A.** Its Kd is 400 nM.
